Laboratory results from paper PMC9913320, “Development of ^99mTc-Hynic-Adh-1 Molecular Probe Specifically Targeting N-Cadherin and Its Preliminary Experimental Study in Monitoring Drug Resistance of Non-Small-Cell Lung Cancer” (Cancers, 2023).
Read-outs that look alike come from different tables or passages of the source.

Legend:
[1] = In vitro stability in PBS; format: physicochemical; conditions: PBS pH 7.4, room temperature
Experimental: (§1) In vitro stability studies of ^99mTc-HYNIC-ADH1 were performed in FBS as well as PBS solution. A total of 50 μL of ^99mTc-HYNIC-ADH1 was mixed with 950 μL of FBS (or PBS), and its radioactivity was measured after being incubated at room temperature for 0.5, 1, 2, 4, 6 and 24 h, respectively.
(§2) For stability assessments, ^99mTc-HYNIC-ADH-1 (3.7 MBq) was incubated in PBS (pH 7.4) or FBS for 24 h. […] The radiochemical purities were 98.51%, 98.50%, 97.97%, 98.02%, 98.81%, 98.09% and 98.09% in FBS at room temperature at 0.5, 1, 2, 3, 6, 12 and 24 h, respectively.

[2] = In vitro stability in FBS; format: in vitro ADME; conditions: room temperature
Experimental: as §1, §2

[3] = Partition coefficient (Log D), 1-octanol/PBS; format: physicochemical; conditions: 1-octanol and PBS (pH 7.4), n = 3
Experimental: Partition coefficients (Log D) of ^99mTc-HYNIC-ADH-1 were measured through the assessment of the distribution of radioactivity in 1-octanol and phosphate buffer in a 2 mL centrifuge tube. A 10 µL ^99mTc-HYNIC-ADH-1 solution was added to a vial containing 1 mL each of 1-octanol and PBS (pH 7.4). After vortexing for 10 min, the vial was centrifuged for 10 min to ensure complete separation of the layers. Then, 10 µL of each layer was pipetted into separate test tubes, and the counts were measured using a γ counter. Partition coefficients are shown as the log counts in 1-octanol vs. PBS layers (n = 3).

[4] = Pharmacokinetic studies (blood radioactivity, PK solver); format: in vivo; conditions: C57/BL6 mice, i.v.
Experimental: For the pharmacokinetic studies, four C57/BL6 mice weighing 18–20 g were administrated with ^99mTc-HYNIC-ADH1 (0.1 mL, 0.74 MBq) by i.v. injection into the tail vein. An array of blood samples was acquired and weighed by pinching the tail with a syringe at 2, 5, 15, 20, 30, 45, 60, 90, 120 and 240 min post-injection (p.i.). Radioactivity was calculated as the % of dose per g of tissue per body weight (%ID/g) expressed over time. […] Pharmacokinetics was assayed using PK solver 2.0.

[5] = Biodistribution in xenograft-bearing nude mice, organs; format: in vivo, BALB/c nude mice; conditions: mouse, iv, 0.74 MBq, i.v.; for tissue uptake at 0.5 h: 30 min; for tissue uptake at 1 h: 60 min; for tissue uptake at 2 h: 120 min; for tissue uptake at 4 h: 240 min
Experimental: All animal research was performed in accordance with the Zhejiang University Institutional Animal Care and Use Committee guidelines. PC9 and PC9GR cells (2 × 10^6 cells per mice) were injected subcutaneously into the flanks of 2- to 4-week old BALB/c nude mice (left: PC9GR, right: PC9). The cells were allowed to grow 3–5 weeks until tumors were 1 ± 0.5 cm^3 in volume. Normal C57/BL6 mice (aged 6 to 8 wks old) were obtained from the Animal Center of the First Affiliated Hospital of Zhejiang University. All animals were maintained with free access to food and water and used a standard diet, bedding and environment.
The radiotracer (0.1 mL, 0.74 MBq) was injected intravenously into normal C57/BL6 mice and xenograft models as previously described (n = 4 per group per time) via the tail vein. After different time intervals (30, 60, 120 and 240 min), the mice were sacrificed by cervical dislocation, and their blood, tumors and major organs (brain, heart, lung, liver, spleen, kidney, stomach, intestine, muscle, bone and skin) were harvested and weighed. The radioactivity of each sample was measured with a γ-counter. Values are shown as the percentage of the injected dose per gram (%ID/g), which corrected for background and decay to maintain consistency.

[6] = blood, read-out: Biodistribution, Blood
[7] = bone, read-out: Biodistribution, Bone
[8] = brain, read-out: Biodistribution, Brain
[9] = heart, read-out: Biodistribution, Heart
[10] = intestine, read-out: Biodistribution, Intestine
[11] = kidney, read-out: Biodistribution, Kidney
[12] = liver, read-out: Biodistribution, Liver
[13] = lung, read-out: Biodistribution, Lung
[14] = muscle, read-out: Biodistribution, Muscle
[15] = skin, read-out: Biodistribution, Skin
[16] = spleen, read-out: Biodistribution, Spleen
[17] = stomach, read-out: Biodistribution, Stomach

CC(=O)N[C@H]1CSSC[C@@H](C(=O)NCCNC(=O)c2ccc(NN)nc2)NC(=O)[C@H](C(C)C)NC(=O)[C@H](C)NC(=O)[C@H](Cc2c[nH]cn2)NC1=O [^99mTc-HYNIC-ADH-1, metal not drawn]
radiochemical purity ([1]; 0.5 h): 99.01%
radiochemical purity ([1]; 1 h): 98.81%
radiochemical purity ([1]; 2 h): 98.55%
radiochemical purity ([1]; 3 h): 99.02%
radiochemical purity ([1]; 6 h): 98.52%
radiochemical purity ([1]; 12 h): 98.01%
radiochemical purity ([2]; 0.5 h): 98.51%
radiochemical purity ([2]; 1 h): 98.50%
radiochemical purity ([2]; 2 h): 97.97%
radiochemical purity ([2]; 3 h): 98.02%
radiochemical purity ([2]; 6 h): 98.81%
radiochemical purity ([2]; 12 h): 98.09%
logD [3]: -2.45 ± 0.1
AUC(0–t) [4]: 0.0593 µg·min/L
AUC(0–∞) [4]: 0.0595 µg·min/L
K10 [4]: 0.0815 min⁻¹
K12 [4]: 0.1511 min⁻¹
K21 [4]: 0.0794 min⁻¹
V1 [4]: 68.753 L/kg
T1/2α ([4]; two-compartment model): 2.3925 min
half-life ([4]; mouse, blood, iv, 0.74 MBq, two-compartment model, read-out: T1/2β): 31 min
tissue uptake at 0.5 h [5, 6]: 1.35 ± 0.18 %ID/g
tissue uptake at 1 h [5, 6]: 0.84 ± 0.03 %ID/g
tissue uptake at 2 h [5, 6]: 0.49 ± 0.05 %ID/g
tissue uptake at 4 h [5, 6]: 0.48 ± 0.2 %ID/g
tissue uptake at 0.5 h [5, 7]: 0.46 ± 0.03 %ID/g
tissue uptake at 1 h [5, 7]: 0.37 ± 0.04 %ID/g
tissue uptake at 2 h [5, 7]: 0.26 ± 0.04 %ID/g
tissue uptake at 4 h [5, 7]: 0.21 ± 0.01 %ID/g
tissue uptake at 0.5 h [5, 8]: 0.05 ± 0.01 %ID/g
tissue uptake at 1 h [5, 8]: 0.07 ± 0.01 %ID/g
tissue uptake at 2 h [5, 8]: 0.05 %ID/g
tissue uptake at 4 h [5, 8]: 0.03 %ID/g
tissue uptake at 0.5 h [5, 9]: 0.57 ± 0.03 %ID/g
tissue uptake at 1 h [5, 9]: 0.42 ± 0.08 %ID/g
tissue uptake at 2 h [5, 9]: 0.28 ± 0.01 %ID/g
tissue uptake at 4 h [5, 9]: 0.23 ± 0.01 %ID/g
tissue uptake at 0.5 h [5, 10]: 0.43 ± 0.03 %ID/g
tissue uptake at 1 h [5, 10]: 1.38 ± 1.01 %ID/g
tissue uptake at 2 h [5, 10]: 0.58 ± 0.12 %ID/g
tissue uptake at 4 h [5, 10]: 0.88 ± 0.38 %ID/g
tissue uptake at 0.5 h [5, 11]: 3.77 ± 1 %ID/g
tissue uptake at 1 h [5, 11]: 2.85 ± 0.54 %ID/g
tissue uptake at 2 h [5, 11]: 3.13 ± 0.7 %ID/g
tissue uptake at 4 h [5, 11]: 3.13 ± 0.54 %ID/g
tissue uptake at 0.5 h [5, 12]: 0.76 ± 0.06 %ID/g
tissue uptake at 1 h [5, 12]: 0.66 ± 0.06 %ID/g
tissue uptake at 2 h [5, 12]: 0.59 ± 0.01 %ID/g
tissue uptake at 4 h [5, 12]: 0.55 ± 0.1 %ID/g
tissue uptake at 0.5 h [5, 13]: 1.5 ± 0.04 %ID/g
tissue uptake at 1 h [5, 13]: 1.2 ± 0.16 %ID/g
tissue uptake at 2 h [5, 13]: 0.68 ± 0.11 %ID/g
tissue uptake at 4 h [5, 13]: 0.56 ± 0.08 %ID/g
tissue uptake at 0.5 h [5, 14]: 0.5 ± 0.47 %ID/g
tissue uptake at 1 h [5, 14]: 0.47 ± 0.1 %ID/g
tissue uptake at 2 h [5, 14]: 0.24 ± 0.01 %ID/g
tissue uptake at 4 h [5, 14]: 0.25 ± 0.04 %ID/g
tissue uptake at 0.5 h [5, 15]: 1.22 ± 0.05 %ID/g
tissue uptake at 1 h [5, 15]: 1.33 ± 0.33 %ID/g
tissue uptake at 2 h [5, 15]: 1.21 ± 0.44 %ID/g
tissue uptake at 4 h [5, 15]: 1.73 ± 0.08 %ID/g
tissue uptake at 0.5 h [5, 16]: 0.35 ± 0.03 %ID/g
tissue uptake at 1 h [5, 16]: 0.27 ± 0.02 %ID/g
tissue uptake at 2 h [5, 16]: 0.22 ± 0.02 %ID/g
tissue uptake at 4 h [5, 16]: 0.2 ± 0.01 %ID/g
tissue uptake at 0.5 h [5, 17]: 1.16 ± 0.18 %ID/g
tissue uptake at 1 h [5, 17]: 0.78 ± 0.32 %ID/g
tissue uptake at 2 h [5, 17]: 0.73 ± 0.31 %ID/g
tissue uptake at 4 h [5, 17]: 0.69 ± 0.29 %ID/g
